In the supplement of paper PMC9170038:

Tested on: MS2 coat protein
Test: apparent KD of MS2 coat protein; designed switch direction (-1 OFF switch, 1 ON switch): -1; higher = weaker reporter binding
Summary of the method: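 Stalled E. coli RNA polymerase transcribed designed RNA switches on Illumina chips, which were then titrated with SNAP-549-labelled MS2 coat protein, doubling from 0.7 or 1.5 nM to 3 µM. Steps lasted from 0.8–1.5 h at the lowest concentration to 10–20 min at the highest. The apparent KD is each design's median over clusters of curve-fitted normalised fluorescence.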

[1] = Eterna round: R95, input ligand: microRNA oligo, concentration not stated
[2] = Eterna round: R95, input ligand: FMN 200 uM
[3] = Eterna round: R95, input ligand: none
[4] = input ligand: microRNA oligo, concentration not stated

Sequence | apparent KD of MS2 coat protein [1] [nM] | apparent KD of MS2 coat protein (input ligand: FMN 200 uM) [nM] | apparent KD of MS2 coat protein (input ligand: none) [nM] | apparent KD of MS2 coat protein [4] [nM] | further results
UUUUAACAUGAGGAUCACCCAUGUGAGGAUAUCGAAAUUUAUAUUUAUAUUUAUAUAACGAGAAGGCACAUUUU [JMF 95] (puzzle: Exclusion 1) | 68.3 | – | – | – | –
CGAUGAGGAGUGAGGAUAUCGUGUUCGAAAGAACGUGAGAAGGCACAUGAGGAUCACCCAUGUGAUCCUCAUCG [Omei Ex4B A21] (Eterna round: R97, puzzle: Brourd's mod of Exclusion 4) | – | 29.8 | 24.8 | – | –
CGUCUGUAAGGAUAUGGUUGUAUCGACAUGAGGAUCACCCAUGUGACGUGGGACUAGUGAUUAGAAGGUACGAACG [EX5 #63] (Eterna round: R97, puzzle: Exclusion 5) | – | 876 | 672 | – | –
UCCUCACAUGAGGAUCACCCAUGUCAGGAUAUGUACCCGAUCAAGUCAGAGAUCGGAAGCAGAAGGGACUGCGG [Larebeti] (puzzle: Exclusion 1) | 70.7 | – | – | – | apparent KD of MS2 coat protein [2]: 26.5 nM; apparent KD of MS2 coat protein [3]: 59.2 nM
AGCCACAGAGGAUAUACAUACAUCCAGUAGUUAAGAAAACUACAUGAGGAUCACCCAUGUAGAAGGCUGUGGCA [Omei Ex2 BD B5] (Eterna round: R97, puzzle: Exclusion 2) | – | 507 | 101 | – | –
UCUGCCGCCGUGAGGAUAUGCCCGCGCAAACGCGGGCAGAAGGCACAUGAGGAUCACCCAUGUCCCGCGGUUUU [salish99_bmx4_r4_133] (Eterna round: R97, puzzle: Brourd's mod of Exclusion 4) | – | 38.7 | 18.3 | – | –
AUAAUGUCAGGAUAUCAGUCGUACAGCUUCGGCUGUACGACUGAGAAGGGACAUGAGGAUCACCCAUGUGGUCA [E4/6-A1] (Eterna round: R97, puzzle: Exclusion 4) | – | 61 | 50.9 | – | –
ACGAGGGUUACAGGAUAUGAAGCUAAAACGGCGUUAGAAGGGUAUACAGAGUUACAUGAGGAUCACCCAUGUUGUGACUUCGAA [AK ExNG1-V2-4] (Eterna round: R96, puzzle: Exclusion NG 1) | – | – | – | 29.4 | –
AAAUACCGGUGAGGAUAUUUUUAAUAGAGCUUUAUGAUAUACAUGAGGAUCACCCAUGUUACGUUAAAGAAGGCAUCGGAUAAA [Mat - Exclusion NG 2 - Mod of JL - D98] (Eterna round: R96, puzzle: Exclusion NG 2) | – | – | – | 13.9 | –
CCCUCACAUGAGGAUCACCCAUGUAAGGAUAUCUUCGAUUUGACGUGGUUGGAUGCGAAGAGAAGGUACAAGGC [jl-ex1-4.72 ViennaUCT mod] (Eterna round: R97, puzzle: Exclusion 1) | – | 35.9 | 20.6 | – | –
UAAAAGUUAGGAUAUACAUGAGGAUCACCCAUGUCGCGGAACCGCGGCGAUUACUCCUGUAGAAGGAACAUCGU [Ribeat] (puzzle: Exclusion 3) | 125 | – | – | – | –
AUUUAAUUUAAUAAGAUCACAUGAGGAUCACCCAUGUAUAUAUAGGAUAUCAGCUCGAUUAGAGCUGAGAAGGAUAUAUACUAU [ExNG3/7-B1] (Eterna round: R96, puzzle: Exclusion NG 3) | – | – | – | 422 | –
AUGGGUACUUUCGGAGCGACAUGAGGAUCACCCAUGUAUAUUGAGGAUAUCCACUACUAAGGACGGGAGAAGGCAGUGUACUGU [Ex NG3 #81] (Eterna round: R96, puzzle: Exclusion NG 3) | – | 53.3 | 46.4 | 29.2 | –
AUUUAAUUUAAUAAGAUCACAUGAGGAUCACCCAUGUAUAUAUAGGAUAUCAGCUCGUGUAGAGCUGAGAAGGAUAUAUACAUG [ExNG3/8-A3] (Eterna round: R96, puzzle: Exclusion NG 3) | – | – | – | 15.4 | –
UUAAGUUCAGGAUAUGAUGAAUUAAACAUGAGGAUCACCCAUGUAGAUCCUGAAAUAACAUCAGAAGGGAAUAUUU [JL-ex5-4.51 Brourd mod] (Eterna round: R97, puzzle: Exclusion 5) | – | 57 | 17.6 | – | –
UUGUUCCGUGUAGGAUAUUGGCCUUCCUCGGGCCGAGAAGGACAUGAGGAUCACCCAUGUAUGCUAUUAUCGCGCGUGGCGCAC [Design 95] (Eterna round: R96, puzzle: Exclusion NG 1) | – | 279 | 39.9 | 22.4 | –
AAAAAACAUGAGGAUCACCCAUGUAAGGAUAUGCUGAAAAACACGGAAAAAACGUGCAGCAGAAGGUACAAAAG [Mat - Exclusion 1 - Eli mod - D90] (Eterna round: R96, puzzle: Exclusion 1) | – | 100 | 61.6 | 55 | –
GGUGCGUAUGUGAGGAUAUGCUGGUCCUUGGCUCGGCAGAAGGCACAUGAGGAUCACCCAUGUGGUGUCGUGCC [salish99_Bmod_ex4_056] (puzzle: Brourd's mod of Exclusion 4) | 15.3 | – | – | – | –

Sequence | apparent KD of MS2 coat protein [1] [nM] | apparent KD of MS2 coat protein (input ligand: FMN 200 uM) [nM] | apparent KD of MS2 coat protein (input ligand: none) [nM] | apparent KD of MS2 coat protein [4] [nM] | further results
UUUUUACAUGAGGAUCACCCAUGUCAGGAUAUGGUUAUAUUUUAUUAUUUUAUUUUUUCCAGAAGGGACUAUUA [My solution] (puzzle: Exclusion 1) | 273 | – | – | – | –
GUCUGCACGCUGCGGUCCUACAUGAGGAUCACCCAUGUGGUCUGGUGGCGUGGGUCACCGGACUUGGCUCGUCUUGC [salish99_S_TOV1_R5_052] (Eterna round: R97, puzzle: Sensor, turn-off variant 1) | – | 19.1 | 18.9 | – | –
AGCUGUGGCCGAGGAUAUCUAAACCUCGAAAACGAAAUAUAAUCGAACAUGAGGAUCACCCAUGUAGAGAAGGCGGUCUCAGCA [Eli eng2 - 033] (Eterna round: R96, puzzle: Exclusion NG 2) | – | – | – | 51 | –
CCCAGUUAGUCAGGAUAUCAUACAUGAGGAUCACCCAUGUAAUAAAUGAGGAUUUCGGGUGUCUAUGAGAAGGGACGGAUAGGC [Ostracism 28 - Jieux - Exclusion NG 2] (Eterna round: R96, puzzle: Exclusion NG 2) | – | 29.6 | 24.5 | 18.8 | –
CCGGAAAUGAAGGAUAUAGGCGUCGAUAGACUCCUAGAAGGUCAUACAUGAGGAUCACCCAUGUGUCCUACCGG [Fiskers Ex 6 - 75] (puzzle: Exclusion 6) | 14.7 | – | – | – | –
ACUAGAUGAGGAUAUGCAUAUUUUCGUGUUCUUCUAGAUUAACAUGAGGAUCACCCAUGUAGAAGGCGUCUGGU [Exclusion 2 - 19] (puzzle: Exclusion 2) | 29.7 | – | – | – | –
CUGGUCCGAGGAUAUAUUAAGUGAUACAUGAGGAUCACCCAUGUAAUUUAAUGGAUGUAAAUAGAAGGCGGACUAG [JL-ex5-3.11] (puzzle: Exclusion 5) | 39.7 | – | – | – | apparent KD of MS2 coat protein [2]: 43.2 nM; apparent KD of MS2 coat protein [3]: 38.7 nM
AUUUUAUAUGAAGGAUAUACUUAACAUGAGGAUCACCCAUGUGGUGUUGUGAGUGAGUGAGUUUAGUAGAAGGUCAAGUAUUUU [JMF's solution 55] (Eterna round: R96, puzzle: Exclusion NG 2) | – | 724 | 396 | 284 | –
UGCAGACGAGGAUAUAGAUUUAGAUACAUGAGGAUCACCCAUGUAUAGAUGUAUUUAGAUUUAGAAGGCGUCUGCA [E5/13-A1] (Eterna round: R97, puzzle: Exclusion 5) | – | 401 | 305 | – | –
AAGCCCUGAGGAUAUCCCAACUCGCACAUGAGGAUCACCCAUGUCCUUCUCUGGGUUUCGGGAGAAGGCAGGCCUC [Megrez-8.3] (Eterna round: R97, puzzle: Exclusion 5) | – | 398 | 911 | – | –
UUGUUGUAUGUAGGAUAUGCAUAUUAUUAUUAUGCAGAAGGACAUGAGGAUCACCCAUGUAUAUUAUUAUUAUAUGUUAUAUAU [Title] (Eterna round: R96, puzzle: Exclusion NG 1) | – | – | – | 20 | –
CUCGUGCAGCAAAGCUGUACGAGUACAUGAGGAUCACCCAUGUAGGAUAUGGUACGCAAAGCGUGCUAGAAGGACGUGUGUAUG [Mat - Exclusion NG 3 - Mod of JL - D91] (Eterna round: R96, puzzle: Exclusion NG 3) | – | 134 | 58 | 28.7 | –
CUGUUUUCCGCAGGAUAUGCUCCUCCAUUACUAGCAGAAGGGCGUUGAACAUGAGGAUCACCCAUGUAUGUAAUUGCUUAUUGC [JR_ExcNG1_Sub072] (Eterna round: R96, puzzle: Exclusion NG 1) | – | 19.2 | 19.4 | 14.6 | –
GCCAGAGCAGGAUAUUCAAUAAUCCACAUGAGGAUCACCCAUGUCUAGCGAAAGCUAGAGGGAGAAGGGCUCUGGC [Mat - Exclusion 5 - Eli mod - D90] (puzzle: Exclusion 5) | 57.2 | – | – | – | –
UUCAGACAUGAGGAUCACCCAUGUGAGGAUAUGAUGCGAUCGUCGAAAGACGAUAGCAUCAGAAGGCACGUAUG [Fiskers Ex 1 - 16] (puzzle: Exclusion 1) | 97.8 | – | – | – | –
UUUGCAAGCUUUAGAUCCCACAUGAGGAUCACCCAUGUUGCUGCCGUGAGGUAGCAUUUAACUAAUGCUCGUCUUAU [JL TOV1 3.48] (Eterna round: R97, puzzle: Sensor, turn-off variant 1) | – | 109 | 169 | – | –
UGAUCUUGAGUCAGGAUAUGCUGGUUUUUUUUUUAGCAGAAGGGACAUGAGGAUCACCCAUGUUCUCACUUUUU [Magic-12] (puzzle: Brourd's mod of Exclusion 4) | 16.8 | – | – | – | –
UCGCAAGCCAUUCCUACUCACAUGAGGAUCACCCAUGUCCUCAGGUUCGUCGUGUCUCUCUGCAAACACUUGCAGAG [Eternabot (L2) Solution 7] (Eterna round: R97, puzzle: Sensor, turn-off variant 1) | – | 145 | 762 | – | –
